In US7264809B1, “Methods of inhibiting platelet activation and recruitment” (Immunex Corporation, priority 1998, dated 2007):

Tested on: platelets
Assay: Platelet aggregation in human platelet-rich plasma
Format: cell-based
Protocol: After obtaining informed consent from volunteers, blood was collected via plastic tubing using acid citrate-dextrose (38 mM citric acid; 75 mM sodium citrate; 135 mM glucose) as anticoagulant. Where indicated, volunteers had ingested 650 mg acetylsalicylic acid (ASA) 18 h prior to blood donation. […] The stock suspension of PRP was maintained at room temperature under 5% CO2-air. […] Total volumes were adjusted to 300 μl with TSG buffer (Marcus et al., J. Clin. Invest. 88:1690, 1991; Marcus et al., J. Clin. Invest. 99:1351, 1997). […] A mock-treated sample was also prepared in which the FSBA solution was replaced with water. After incubating at 37° for 90 min., the samples were centrifuged in a Centricon-10 filter unit (Amicon Corp.) for 1 hour at 5,500 rpm and buffer exchanged into PBS to remove unreacted material.

B1: solCD39: recombinant soluble human CD39, untagged: 12 mature huIL2 residues, three amino acid linker, sol CD39 (SEQ ID NO:7) (protein)
chain: MALWIDRMQLLSCIALSLALVTNSAPTSSSTKKTQLTSSTQNKALPENVKYGIVLDAGSSHTSLYIYKWPAEKENDTGVVHQVEECRVKGPGISKFVQKVNEIGIYLTDCMERAREVIPRSQHQETPVYLGATAGMRLLRMESEELADRVLDVVERSLSNYPFDFQGARIITGQEEGAYGWITINYLLGKFSQKTRWFSIVPYETNNQETFGALDLGGASTQVTFVPQNQTIESPDNALQFRLYGKDYNVYTHSFLCYGKDQALWQKLAKDIQVASNEILRDPCFHPGYKKVVNVSDLYKTPCTKRFEMTLPFQQFEIQGIGNYQQCHQSILELFNTSYCPYSQCAFNGIFLPPLQGDFGAFSAFYFVMKFLNLTSEKVSQEKVTEMMKKFCAQPWEEIKTSYAGVKEKYLSEYCFSGTYILSLLLQGYHFTADSWEHIHFIGKIQGSDAGWTLGYMLNLTNMIPAEQPLSTPLSHST
- platelet aggregation induced by 10 μM ADP (3.3 μg/ml solCD39, PRP from aspirin-ingesting donor): abruptly terminated
- induction of platelet activation by ADP or collagen (ASA-treated PRP, 10 μM ADP (4.4 μg/ml) or collagen (22 μg/ml)): significantly inhibited
- effect on collagen-induced aggregation with increasing quantity (PRP from aspirin-ingesting donor): dose dependent
- platelet responsiveness to 5 μM ADP (PRP with or without 10 μM indomethacin, CM containing solCD39 from COS-1 and CHO cells): completely abrogating
- platelet aggregation response to collagen (collagen 1 μg/ml, PRP): markedly reduced
